Publication PMC5117717 (2016)

Columns and labels:
RadA-ct = RadA-ct (Pyrococcus furiosus); experiment: ITC
HumRadA33 = HumRadA33 (Pyrococcus furiosus, UniProt O74036 108-349, S167K | V168A | I169M | W170Y | N175G | I182L | R183L | D192S | P193G | D194S | …); experiment: ITC

B1: RadA oligomerisation peptide (peptide)
peptide: Ac-NLGTFMRADEYLKKRA-NH2
Kd (RadA-ct): 0.6 µM
Kd (HumRadA33): 13 µM
